Test: yeast display, Sf9 membrane polyspecificity reagent, FACS + sequencing; frameworks hold sequencing errors
Method in brief: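 Synthetic nanobody libraries on Saccharomyces cerevisiae BJ5465 were galactose-induced for 36–48 hours, stained 1 hour at 4 °C with 10% biotinylated, detergent-solubilized Sf9 membrane reagent and enriched on streptavidin microbeads. FACS then separated cells into low and high (top ~1%) gates by anti-HA (expression) and streptavidin (reagent binding) fluorescence. Genes were colony-PCR amplified, MiSeq 2 × 250 sequenced and CDR-length filtered. A clone's polyreactivity label is that of its gate of origin.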

Sequence: QVQLVESGGGLVHAGGSLRLSCAPSGSIFTPYAMGWYRQAPAKDRELVADNTYRGGSTYYADSVKGRFTISRDNAKNSVYLQINSLKAEDSAVYYCNADVFTDYRHTRDDYWGQGTQVTVSS
- polyreactivity (PSR sort gate): low polyreactivity

Sequence: QVQLVESGGGLVHAGGSLRLSCASSGIIFDYYAMAWYRQAPGKERELVASITGTTGSTYYADSVKGRFTISRDNAKINVYLQMNSLKPEDTAVYYCNVDTPYGGLVTMDYWGQGTQVTVSS
- polyreactivity (PSR sort gate): low polyreactivity

Sequence: QVQLVESGGGLVHAGGSLRLSCSPSVSIFNTYAMGWYRQAPGKERELVAGITKTGSPTYYADSVKGRFTISRDIAKNTFYLQMNSLKPEDTAVYYCNARIWPRSYRYDYWGQGTQVTVSS
- polyreactivity (PSR sort gate): high polyreactivity

Sequence: QVQLVESGGGLVHAGGSLSLSCAASGSIFPGYAMGWYRQAPGKERELVAGITWSDARTYYADSVKGRFTISRDNAKNTVYLQMNSLKPEDTAVYYCAADYYYYERDYWGKGTQVTVSS
- polyreactivity (PSR sort gate): low polyreactivity

Sequence: QVQLVESGGGLVHDGGSLRLSCAASGSILWPYAMGLYRQAPGKERELVAAISTGGSTYYADSVKGRFTISRDNANNTVYLQRNSLKPEDTAVYYCAAFVDYSVYFGGGYWGQGTQVTVSS
- polyreactivity (PSR sort gate): low polyreactivity

Sequence: QVQLVESGGGLVHPGGSLRLSCAASGIIFGRYTMGWYRQAPGKERELVAAITSSGITYYADSVKGRFTISRDNAKNTVYLQMNSLKPEDTAVYYCNADYSIPGYYWPYDYWGQGTQVTVSS
- polyreactivity (PSR sort gate): low polyreactivity

Sequence: QVQLVESGGGLVHPGGSLRLSCAASGSTFGCNAMGWYRQAPGKERELVSAITFSGGTTYYADSVKGRFTISRDNAKNTVYLQMNSLKPEDTAVYYCNAEWWYQYTGPFAPRGEDYLGQGTQVTVSS
- polyreactivity (PSR sort gate): low polyreactivity

Sequence: QVQLVESGGGLVKAGCSLRLSCAASGRIFIVNAMGWYRQAPGKERELVAAISGSGGRTYYADSVKGRFTNSRDNAKNTVYLQMNSLKPEVTAVYYCAAVLRTQPRRYDYWGQGTQVTVSS
- polyreactivity (PSR sort gate): high polyreactivity

Sequence: QVQLVESGGGLVKAGGSLRISCAASGSIFGPNGKGLYRQAPGKERELVSAISWNGGSTYYADSVKGRFTISRDNAKNTVYLQMNSLKPEDTAVYYCNAVQYYEFDYWGHGTQVTVSS
- polyreactivity (PSR sort gate): low polyreactivity

Sequence: QVQLVESGGGLVKAGGSLRLSCAASGFIFGYNDMGGYRQAPGKERELVAAITSRGDRTYYADSVKGRFTISRDNAKNTVYLQMNSLKPEDTAVYYCAAESQAYSLYWGQGTQLTVSS
- polyreactivity (PSR sort gate): high polyreactivity

Sequence: QVQLVESGGGLVKAGGSLRLSCAASGFNFSSYALGWYRPAPGKERELVAAISYSGGSTYYADSVKGRFTISRDNAKNTVYLQMNSLKPEDTAVYYCNKLRGYGLRYIVSLDYWGQGTQVSVSS
- polyreactivity (PSR sort gate): high polyreactivity

Sequence: QVQLVESGGGLVKAGGSLRLSCAASGNIFYINTMGWYRQAPGKERELVAAIDASYGSTYYADSVKGRFTISRDNAKNTVYLQMNSLKPEDTAVYYCATSRGYDSVYYFYTLWYYYWVQGTQVTVSS
- polyreactivity (PSR sort gate): low polyreactivity

Sequence: QVQLVESGGGLVKAGGSLRLSCAASGRIFNYYAMGWYRQAPGKERELVAAISSVGSTNYADSVTGRFTISRDNAKNTVYLQMISLKPEDTAVYYCAAPYQHYDVNYDSWGQGTQVTVSS
- polyreactivity (PSR sort gate): low polyreactivity

Sequence: QVQLVESGGGLVKAGGSLRLSCAASGRTFLRNAMGWYRQAPGKERELVATITRGGSTYYADSVKGRFTISRDNAKNTVYLQMNSLKPEDTAVYYCAKDITGGFRRPDYGYWGHGTQVTVSS
- polyreactivity (PSR sort gate): low polyreactivity

Sequence: QVQLVESGGGLVKAGGSLRLSCAASGRTFRYYDMGWYRQAPGKESELVAAIRTRGASTYYADSVKGRFTISRDNAKNTVYLQMNSLNPEDTAVYYCAKRAHFSSARHVYYIYDYWGQGTQVTVSS
- polyreactivity (PSR sort gate): low polyreactivity

Sequence: QVQLVESGGGLVKAGGSLRLSCAASGSIFKGNVMGWYRQAPGKERELVAGINWSSGRTYYADSVKGRFTISRDNAKNTVYLQMNSLNPEDTAVYYCNAPQYFSYSWPYPREYDYWGQGTQVNVSS
- polyreactivity (PSR sort gate): high polyreactivity

Sequence: QVQLVESGGGLVKAGGSLRLSCAASGSIGSYAMGCYRQAPGKERELVAAISSRGGSTYYADSVKGRFTISRDNAKNTVYLQMNSLKPEDTAFYYCAADYRGRYYSKYYYWGQGTQVTVSS
- polyreactivity (PSR sort gate): high polyreactivity

Sequence: QVQLVESGGGLVKAGGSLRLSCAASGSISAGNAMGWNIHAPGKERELVAAISGSGGSTFYADSVKGRFTISRYNAKNSVYLQINSLKPEDTAVYYCAARGGYRLRYIPYVRYDYWGQGTQVTVSS
- polyreactivity (PSR sort gate): high polyreactivity

Sequence: QVQLVESGGGLVKAGGSLRLSCAASGSNFTFYAMGWYRQAPGKVRELDATISLRGGRKYYADSVKGRFTISRDNAKNTVYLQMNSLKPEDTAVYYCNAPAYYGGYRFRGYNYWGQGTQVTVSS
- polyreactivity (PSR sort gate): high polyreactivity

Sequence: QVQLVESGGGLVKAGGSLRLSCAASGSTFRKYAMGWYRQAPGKEREFVAAISSSGGRTYYADSVKGRFTISRDNAKNTVYFLMNSLKPEDTAVYYCNSYFRYSNDYWGQGTQVTVSS
- polyreactivity (PSR sort gate): high polyreactivity

Sequence: QVQLVESGGGLVKAGGSLRLSCAASGSTFSRYAMGWYRQAPGKEREFVADITFRTSSTNYADSVKGRFTISRDNAKNTVYLQMNSLKPEDPAVYYCATDTQYKSYAHDYWGQGTQVTVSS
- polyreactivity (PSR sort gate): low polyreactivity

Sequence: QVQLVESGGGLVKAGGSLRLSCAPSGSSFYYAMGWYRQAPGKERELVAAINSGGSTNYADSVKGRFTISRDNAKNTVYLQMNSLKPEDTAVYYCAADLYGYWWSFDYDYWGQGTQVTVSS
- polyreactivity (PSR sort gate): low polyreactivity

Sequence: QVQLVESGGGLVKAGGSLRLSCDASGLTFNANPMGWYRQEPGKESELVAAIDWIGVSTYYADSVKGRFTISRDNAKNTVYLQMNSLKPEDTAVYYCAAEYDYNFGGNDLWYYYWGQGTQVTVSS
- polyreactivity (PSR sort gate): high polyreactivity

Sequence: QVQLVESGGGLVKAGGSLRLSFAAYGSNFPRYALGWYRQATGKERELVASITSDGGSTYYADSVKGRFTISRDNAKNTVYLQMNSLKPEDTAVYYCNKVPYRGYRRYGYWGQGTQVTVSS
- polyreactivity (PSR sort gate): high polyreactivity

Sequence: QVQLVESGGGLVKAGGSLRLSSAASGRTFKWYAMGWSRQAPGKERELVAVITGRGGSTYYADSVKGRFTISRDNAKNTVYLQMNSLKPEDTAVYSCAARGYSLVASSLYYYWGQGTQVTVSS
- polyreactivity (PSR sort gate): high polyreactivity

Sequence: QVQLVESGGGLVKAGGSLRLSSDASGSISKSYAMGWYRQAPGKERELVAVITSGGNTYYADSVKGRFTISRDNAKNTVYLQMNSLKPEDTAVYYCAAKSGRGRTMDYWGQGTQVTVSS
- polyreactivity (PSR sort gate): high polyreactivity

Sequence: QVQLVESGGGLVKAGGSLRLTCAASGRIFVNYAMGWYRQAPGKEMELVAAINWSGGRTYYADSVKGRFTISRDNAKNTVYLQMNSLKPEDTAVYYCAAEWEGTYTTVPDEFNYWGQGTQVTVSS
- polyreactivity (PSR sort gate): high polyreactivity

Sequence: QVQLVESGGGLVKAGGSLSLSCAASGFIFVNNVMGWYRQAPGKERELVAAISRRGGSTYYADSVKGRFTISRDNAKNTVYLQMNSLKPEDTAVYYCARRGPDFSWKYDYWGQGTQVTVSS
- polyreactivity (PSR sort gate): high polyreactivity

Sequence: QVQLVESGGGLVKARGSLRLSFAASGSTFLVYAMGWYRQAPGKEREFVAAITWSGGYTYYADSVKGRFTISRDNAKNTVYLQMNSLKPEDTSVYYSAAEIQRTYSWEYPYEMYWGQGTQVTVSS
- polyreactivity (PSR sort gate): high polyreactivity

Sequence: QVQLVESGGGLVLAGGRLRLSCAASGRTFYVYTMGWYRQAPGKEWELVAGISYSGGSTYYADSVMGRFTISRDNAKNTVYLQMNSLKPEDTAVYYCNAELYCPYFDGKTRHGGYWGQGTQVTVSS
- polyreactivity (PSR sort gate): low polyreactivity

Sequence: QVQLVESGGGLVLAGGSLRLSCAASGFTFFIYVMGWYRQAPGKEREFVAAISSSGDSTYYADSVKGRFTISRDNAKNTVYLQMNSLKPEDTAVYYCNAGDKFSSYWYDYWGQGTQVTVSS
- polyreactivity (PSR sort gate): low polyreactivity

Sequence: QVQLVESGGGLVLAGGSLRLSCAASGFTFRKNAMGWYRQARGKERELVAAINSSGGSTYYADSVKGRFTISRDNAKNTVYLQMNSLKPEDTAVFYCNAVGRSLARPRGDYWGQGTQVTVSS
- polyreactivity (PSR sort gate): high polyreactivity

Sequence: QVQLVESGGGLVLAGGSLRLSCAASGNILIGNVMGWYRPAPGKERELVAAITSGGDTYYADSVKGRFTISRDNAKNTVYLQMNSLNPEDTAVYYCAADRPGQPKYEYWRQGTQVTVSS
- polyreactivity (PSR sort gate): low polyreactivity

Sequence: QVQLVESGGGLVLAGGSLRLSCAASGRIFRGYAMGWYRQAPGKERELVAGITWGAGRTYYADSVKGRFTISRDNAKNTVYLQMNSLKPEDTAVYYCAAYYSQDSRRKYDYWGQGTQVSVSS
- polyreactivity (PSR sort gate): high polyreactivity

Sequence: QVQLVESGGGLVLAGGSLRLSCAASGRIFRWYAMGWYRQAPGKERELDATISSTGGSTYYADSVKGRFTISRDNAKNTVYLQMNSLKPEDTAVYYCNAVVYGIFLYAWYDYWGQVTQVTVSS
- polyreactivity (PSR sort gate): low polyreactivity

Sequence: QVQLVESGGGLVLAGGSLRLSCAASGRTFIGYALGWYRQAPGKERELVAAISPGGSTKYADSVKGRFTISRDNAKNTVYLQINSLKPEDNAVYYGAVGWSYYAGLRHRYYSGFDYWGQGTQVTVSS
- polyreactivity (PSR sort gate): low polyreactivity

Sequence: QVQLVESGGGLVLAGGSLRLSCAASGRTFKENAKGWYRQAPGKARELVAVINSGGRTYYAVSVKGSFTISRDNAKNTVYLQMNSLKPEDSAVYYCAAYSRSKESGYWGQGTQVTVSS
- polyreactivity (PSR sort gate): high polyreactivity

Sequence: QVQLVESGGGLVLAGGSLRLSCAASGRTYYAYTMGWYRKAPRKERELVAAISGSGSTTYYADSVKGRFTISRDNAKNTVYLQMNSLKPEDTAVFYCAADFFAGTQRTFDYWGQGTQVTVSS
- polyreactivity (PSR sort gate): high polyreactivity

Sequence: QVQLVESGGGLVLAGGSLRLSCAASGSIFGGYAMGWYRPAPGKERELVAAISSGDSTYYADSVKGRFTISRDNAKNTVYLQINSLKPEDTAVYYCAAAFFARDRKRYNYWGQGTQVTVSS
- polyreactivity (PSR sort gate): high polyreactivity

Sequence: QVQLVESGGGLVLAGGSLRLSCAASGSIFKNYAMGWYGQAPGKVRELVAAITRGTYYADSVKGRFTISRDNAKNTVYLQMNSLKPEDTAVYYCNREYWGRGYYRVRGEYDYWGQGTQVTVSS
- polyreactivity (PSR sort gate): low polyreactivity

Sequence: QVQLVESGGGLVLAGGSLRLSCAASGSILTFYAMGWYRQAPGKERELVARITLIVARTNYADSVKARFTISRDNAKNTVYLQMNSLKPEDTAVYYCAKRDGDSGIGFGYWGQGTQVTVSS
- polyreactivity (PSR sort gate): low polyreactivity

Sequence: QVQLVESGGGLVLAGGSLRLSCAASGSTFVQNAMGWYRQAHGKERELVAAITFGGGSTYYADSVKGRFTISRDNAKNTVYLQMNSLKPEDTAVYYCAVEVGNPQLAYSYDYWGQGTQVTVSS
- polyreactivity (PSR sort gate): low polyreactivity

Sequence: QVQLVESGGGLVLAGGSLRLSCAASGSTFVYYAMGWYRQAPGKERELVAAISRSGGSTYYADSVKGRFTISRDNAKNTVYLQMNSLKPEDTAVYYCAAKVRFTRRYDYWGQGTQVTVSS
- polyreactivity (PSR sort gate): high polyreactivity
